Measured values: patent publication US20230338477A1 (published 2023)
Changes are numbered by the printed parent chain.

B1: 69329 (antibody, V domains shown)
VH: EVQLVESGGGLVQPGGSLRLSCAASGFTFSNYWMTWVRQAPGKGLEWVANIKEDGSEKDYVDSVKGRFTISRDNAKNSLYLQMNSLRGEDTAVYYCARDGEQLVDYYYYYVMDVWGQGTTVTVSS
VL: DIQMTQSPSSVSASVGDRVTITCRASQGISSWLAWYQQKPGKAPKLLIYAASSLQSGVPSRFSGSGSGTDFTLTISSLQPEDFATYYCQKANSFPYTFGQGTKLEIK
notes: Anti-hTfR antibody of the initial screen; only variable domains are tied to it
B2: 12812B (antibody, V domains shown)
VH: QVQLVQSGAEVKKPGSSVRVSCKASRGTFSSYAISWVRQAPGQGLEWMGGIIPIFGTANYAQKFLARVTITADESTSTAYMELSSLRSEDTAVYYCAREKGWNYFDYWGQGTLVTVSS
VL: B1 VL with S9P, K90Q, Y96R, L104V
notes: as for B1
B3: 12799B (antibody, V domains shown)
VH: QITLKESGPTLVKPTQTLTLTCTFSGFSLSTSGVGVVWIRQPPGKALEWLALIYWNDHKRYSPSLGSRLTITKDTSKNQVVLTMTNMDPVDTATYYCAHYSGSYSYYYYGLDVWGQGTTVTVSS
VL: B1 VL with S30A, K45E, S56G, T85I, K90Q, S93Y, Y96W, L104V
notes: as for B1
B4: 69307 (antibody, V domains shown)
VH: B1 VH with A23T, D59E
VL: B1 VL with N92D, F94L, T97A
notes: as for B1
B5: 12844B (antibody, V domains shown)
VH: EVQLVESGGSVVRPGGSLRLSCEASGFTFDDYGMSWVRQDPGKGLEWVSGINWNGDRTNYADSVKGRFIISRDNAKNSVYLQMNSLRAEDSALYHCARDQGLGVAATLDYWGQGTLVTVSS
VL: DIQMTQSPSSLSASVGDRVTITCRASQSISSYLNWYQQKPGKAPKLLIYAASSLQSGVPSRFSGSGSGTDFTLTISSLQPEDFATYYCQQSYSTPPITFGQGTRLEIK
notes: as for B1
B6: 12834B (antibody, V domains shown)
VH: QVQLVQSGAEVKKPGASVKVSCKASGYTFTSYGISWVRQAPGQGLEWMGWISVYHGNTNYAQKFQGRVTMTTDTSTSTAYMELRSLRSDDTAVYYCAREGYYDFWSGYYPFDYWGQGTLVTVSS
VL: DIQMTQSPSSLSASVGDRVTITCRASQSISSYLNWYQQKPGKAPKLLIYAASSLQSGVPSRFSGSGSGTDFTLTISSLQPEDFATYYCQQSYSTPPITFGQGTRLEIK
notes: as for B1
B7: 12845B (antibody, V domains shown)
VH: EVQLVESGGGLVQPGGSLRLSCAASGFTVSNYEMNWVRQAPGKGLEWVSYISSSTSNIYYADSVKGRFTISRDNAENSLYLQMNSLRVEDTAVYYCVRDGIVVVPVGRGYYYYGLDVWGQGTTVTVSS
VL: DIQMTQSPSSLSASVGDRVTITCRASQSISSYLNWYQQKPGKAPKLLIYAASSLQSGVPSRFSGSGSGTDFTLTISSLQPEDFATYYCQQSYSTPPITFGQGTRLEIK
notes: as for B1
B8: 12835B (antibody, V domains shown)
VH: EVQLVESGGGLIQPGGSLRLSCEASGFTFRNYEMNWVRQAPGKGLEWVSYISSSGNMKDYAESVKGRFTISRDNVKNSLQLQMNSLRVEDTAVYYCARDEFPYGMDVWGQGTTVTVSS
VL: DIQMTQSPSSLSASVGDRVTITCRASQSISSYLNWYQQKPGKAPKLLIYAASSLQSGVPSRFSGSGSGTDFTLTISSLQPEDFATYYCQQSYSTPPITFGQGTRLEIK
notes: as for B1
B9: 12847B (antibody, V domains shown)
VH: EVQLVESGGGLVQPGRSLRLSCAASGFTFDDYAMNWVRQAPGKGLEWVSGISWSSGSMDYADSVKGRFTISRDNAKNSLYLQMNSLRTEDTALYYCAKAREVGDYYGMDVWGQGTTVTVSS
VL: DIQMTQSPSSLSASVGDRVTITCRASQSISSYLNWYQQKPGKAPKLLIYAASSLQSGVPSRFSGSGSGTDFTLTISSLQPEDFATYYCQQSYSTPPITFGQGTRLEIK
notes: as for B1
B10: 12816B (antibody, V domains shown)
VH: QVQLVESGGGLVKPGGSLRLSCAASGFTFSDYYMNWIRQAPGKGLEWVSYISSSGTTIYYADSVKGRFTISRDNAKKSLYLEMNSLRAEDTAVYYCAREGYGNDYYYYGIDVWGQGTTVTVSS
VL: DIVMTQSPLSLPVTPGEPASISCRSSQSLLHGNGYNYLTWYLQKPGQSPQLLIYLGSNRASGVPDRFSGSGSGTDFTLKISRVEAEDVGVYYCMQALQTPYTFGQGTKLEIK
notes: as for B1
B11: 69261 (antibody, V domains shown)
VH: B10 VH with D31V, T56S, K77N, E82Q, A97G, G102S, N103G, D104T, Y106S, I110M
VL: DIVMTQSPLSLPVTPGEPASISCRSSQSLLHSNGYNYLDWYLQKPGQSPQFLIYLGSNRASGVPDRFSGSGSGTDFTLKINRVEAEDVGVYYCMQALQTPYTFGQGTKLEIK
notes: as for B1
B12: 12833B (antibody, V domains shown)
VH: QVQLVESGGGVVQPGRSLRLSCAASGFTFSSFGMHWVRQAPGKGLEWVIFISYDGSDKYYADSVKGRFAISRDSSKNTLYLQMNSLRAEDTAVYYCAKENGILTDSYGMDVWGQGTTVTVSS
VL: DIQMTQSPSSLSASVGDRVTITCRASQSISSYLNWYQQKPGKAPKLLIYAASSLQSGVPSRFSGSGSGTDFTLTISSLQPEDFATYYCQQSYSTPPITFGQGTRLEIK
notes: as for B1
B13: 12795B (antibody, V domains shown)
VH: EVQLVESGGGLVQPGGSLRLSCATSGFTFTSYDMKWVRQAPGLGLEWVSAISGSGGNTYYADSVKGRFTISRDNSRNTLYLQMNSLRAEDTAVYYCTRSHDFGAFDYFDYWGQGTLVTVSS
VL: DIQMTQSPSSLSASVGDRVTITCRASQGIRDHFGWYQQKPGKAPKRLIYAASSLHSGVPSRFSGSGSGTEFTLTISSLQPEDFATYYCLQYDTYPLTFGGGTKVEIK
notes: as for B1
B14: 12801B (antibody, V domains shown)
VH: EVQLLESGGALVQPGGSLRLSCAASGFTFTSYAMHWVRQAPGKGLEWVSSIRGSGGGTYSADSVKGRFTISRDNSRDTLYLQMNSVRAEDTAVYYCARSHDYGAFDFFDYWGQGTLVTVSS
VL: B13 VL with D31T, H32D, F33L, H55Q, Q79R, Y86F, D92N, T93S
notes: as for B1
B15: 12850B (antibody, V domains shown)
VH: QVQLVQSGAEVKKPGSSVKVSCKASGGTFNTYAITWVRQAPGQGLEWMGGIIPISGIAEYAQKFQGRVTITTDDSSTTAYMELNSLRSEDTAVYYCASWNYALYYFYGMDVWGRGTTVTVSS
VL: not shown
notes: as for B1
B16: 12841B (antibody, V domains shown)
VH: EVQLVESGGGLVQPGGSLRLSCAASGFTFSNYWMNWVRQAPGKGLEWVANIKEDGGKKLYVDSVKGRFTISRDNAKNSLFLQMNSLRAEDTAVYYCAREDTTLVVDYYYYGMDVWGQGTTVTVSS
VL: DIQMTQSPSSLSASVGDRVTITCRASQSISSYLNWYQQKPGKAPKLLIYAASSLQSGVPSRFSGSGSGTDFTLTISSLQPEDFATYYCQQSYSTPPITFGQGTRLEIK
notes: as for B1
B17: 12808B (antibody, V domains shown)
VH: QLQLQESGPGLVKPSETLSLTCTVSGESISSNTYYWGWIRQPPGKGLEWIGSIDYSGTTNYNPSLKSRVTISVDTSRNHFSLRLRSVTAADTAVYYCAREWGNYGYYYGMDVWGQGTTVTVSS
VL: DIQMTQSPSSLSASVGDRVTINCRASQGIRNDLGWYQQKPGKAPKRLIYAASSLQSGVPLRFSGSGSGTEFTLTINNLQPEDFATYYCLSHNSYPWTFGQGTKVEIK
notes: as for B1
B18: 69323 (antibody, V domains shown)
VH: EVQLVESGGGLVQPGRSLRLSCAASGFTFDDYAMHWVRQAPGKGLEWVSGISWNSGYIGYADSVKGRFTISRDNAENSLHLQMNSLRAEDTALYYCARGGSTLVRGVKGGYYGMDVWGQGTTVTVSS
VL: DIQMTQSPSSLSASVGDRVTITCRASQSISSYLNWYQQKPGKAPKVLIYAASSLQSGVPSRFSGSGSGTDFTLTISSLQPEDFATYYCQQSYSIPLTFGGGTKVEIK
notes: as for B1
B19: 31874B (antibody, V domains shown)
VH: EVQLVESGGGLVQPGGSLRLSCAASGFAFSSYAMTWVRQAPGKGLEWVSVISGTGGSTYYADSVKGRFTISRDNSKNTLYLQMNSLRAEDTAVYYCAKGGAARRMEYFQYWGQGTLVTVSS
VL: DIQMTQSPSSLSASVGDRVTITCRASQGISNYLAWYQQKPGKVPNLLIYAASTLQSGVPSRFSGSGSGTDFTLTISSLQPEDVATYYCQKYNSAPLTFGGGTKVEIK
notes: as for B1
B20: 31863B (antibody, V domains shown)
VH: EVQLVESGGGLVQPGGSLRLSCAASGFTFNSYAMTWVRQAPGKGLEWVSFIGGSTGNTYYAGSVKGRFTISSDNSKKTLYLQMNSLRAEDTAVYYCAKGGAARRMEYFQHWGQGTLVTVSS
VL: B19 VL with V15I, N45K, K90N, Y91H, A94V
notes: as for B1
B21: 69263 (antibody, V domains shown)
VH: EVQLVESGGGLVQPGRSLRLSCAVSGFTFDDYAMHWVRQAPGKGLEWVSGISWNSGTRGYADSVKGRFTISRDNAKNSLYLQMNSLRGEDTALYYCVKDITISPNYYGMDVWGQGTTVTVSS
VL: B19 VL with G28D, N31H, L33S, V43L, T72S, I75T, A94V
notes: as for B1
B22: 12802B (antibody, V domains shown)
VH: QVQLVESGGGLVKPGGSLRLSCAASGFTFSDYFMSWIRQAPGKGLEWVSYISSTGSTINYADSVKGRFTISRDNVKNSLYLQMTSLRVEDTAVYYCTRDNWNYEYWGQGTLVTVSS
VL: EIVMTQSPATLSVSPGERATLSCRASQSVSINLAWYQQKPGQAPRLLIFVASTRATGIPARFSGSGSGTEFTLTISSLQSEDFATYYCQQYDIWPYTFGQGTKLEIK
notes: as for B1
B23: 12843B (antibody, V domains shown)
VH: EVQLVESGGGLVQPGGSLRLSCAASGFTFNIFEMNWVRQAPGKGLEWISYISSRGTTTYYADSVRGRFTISRDNAKNSLYLQMNSLRAEDTAVYYCARDYEATIPFDFWGQGTLVTVSS
VL: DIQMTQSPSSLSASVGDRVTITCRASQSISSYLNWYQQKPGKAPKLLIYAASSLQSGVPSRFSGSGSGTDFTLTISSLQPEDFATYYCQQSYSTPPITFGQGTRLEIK
notes: as for B1
B24: 12839B (antibody, V domains shown)
VH: QVQLVESGGGVVQPGRSLRLSCAASGFPFSNYVMYWVRQAPGKGLEWVALIFFDGKKNYHADSVKGRFTITRDNSKNMLYLQMNSLRPEDAAVYYCAKIHCPNGVCYKGYYGMDVWGQGTTVTVSS
VL: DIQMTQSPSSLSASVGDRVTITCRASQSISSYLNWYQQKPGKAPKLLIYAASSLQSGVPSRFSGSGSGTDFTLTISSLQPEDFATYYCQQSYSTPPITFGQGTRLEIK
notes: as for B1
B25: 12798B (antibody, V domains shown)
VH: EVQLVESGGDLVQPGRSLRLSCAASGFTFDDYAMHWVRQAPGKGLEWVSGISWNSATRVYADSVKGRFTISRDNAKNFLYLQMNSLRSEDTALYHCAKDMDISLGYYGLDVWGQGTTVTVSS
VL: not shown
notes: as for B1
B26: 12848B (antibody, V domains shown)
VH: EVQLVESGGGLVQPGRSLTLSCAASGFTFDNFGMHWVRQGPGKGLEWVSGLTWNSGVIGYADSVKGRFTISRDNAKNSLYLQMNSLRPEDTALYYCAKDIRNYGPFDYWGQGTLVTVSS
VL: not shown
notes: as for B1
B27: 69305 (antibody, V domains shown)
VH: QVQLVESGGGVVQPGRSLRLSCAASGFTFSSYGMHWVRQAPGKGLEWVAVIWYDGSNKYYADSVKGRFTISRDISKNTLYLQMNSLRAEDTAVYYCAGQLDLFFDYWGQGTLVTVSS
VL: DIQMTQSPSSLSASVGDRVTITCRASQSIDRYLNWYRQKPGKAPKLLIYTTSSLQSGVPSRFSGSGSGTDFTLTLSSLQPEDFATYYCQQSYSPPLTFGGGTKVEIK
notes: as for B1

What follows are binders tested against T1, human transferrin receptor 1 (hTfR) (human, UniProt P02786 89-760, limits assumed) (assay: in vitro binding screen, method not described).
T1 construct: also called TFRC; transferrin receptor protein 1
T1 sequence (P02786 89-760 limits assumed): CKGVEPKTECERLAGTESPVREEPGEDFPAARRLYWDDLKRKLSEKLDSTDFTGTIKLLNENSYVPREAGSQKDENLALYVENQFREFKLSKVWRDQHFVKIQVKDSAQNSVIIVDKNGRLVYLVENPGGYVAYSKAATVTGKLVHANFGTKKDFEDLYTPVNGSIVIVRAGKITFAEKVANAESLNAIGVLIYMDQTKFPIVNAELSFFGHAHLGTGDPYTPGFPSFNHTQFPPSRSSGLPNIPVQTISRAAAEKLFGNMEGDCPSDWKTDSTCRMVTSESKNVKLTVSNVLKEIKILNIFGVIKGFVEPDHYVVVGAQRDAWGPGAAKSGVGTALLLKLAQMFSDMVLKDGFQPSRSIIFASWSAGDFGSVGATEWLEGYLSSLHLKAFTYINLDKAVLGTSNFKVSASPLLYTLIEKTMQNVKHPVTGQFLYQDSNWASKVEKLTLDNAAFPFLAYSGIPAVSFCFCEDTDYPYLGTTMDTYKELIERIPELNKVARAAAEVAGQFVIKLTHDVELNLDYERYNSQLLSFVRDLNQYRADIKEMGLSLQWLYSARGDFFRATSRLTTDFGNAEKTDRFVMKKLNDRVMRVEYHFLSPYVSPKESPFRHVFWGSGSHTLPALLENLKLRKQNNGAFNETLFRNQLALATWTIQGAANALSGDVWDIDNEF

Row | Binder | binding result
1 | B1 | binds
2 | B2 | binds
3 | B3 | binds
4 | B4 | binds
5 | B5 | binds
6 | B6 | binds
7 | B7 | binds
8 | B8 | binds
9 | B9 | binds
10 | B10 | binds
11 | B11 | binds
12 | B12 | binds
13 | B13 | binds
14 | B14 | binds
15 | B15 | binds
16 | B16 | binds
17 | B17 | binds
18 | B18 | binds
19 | B19 | binds
20 | B20 | binds
21 | B21 | binds
22 | B22 | binds
23 | B23 | binds
24 | B24 | binds
25 | B25 | binds
26 | B26 | binds
27 | B27 | binds
